From patent US20220168396A1, “MULTI-RECEPTOR AGONIST AND MEDICAL USE THEREOF” (published 2022)
Square brackets hold non-standard residues; d marks the D form. Ends that are not written are not given here. Aib = CC(C)(N)C(=O)O

T1: human glucose-dependent insulinotropic peptide receptor (human, UniProt P48546)
T1 sequence: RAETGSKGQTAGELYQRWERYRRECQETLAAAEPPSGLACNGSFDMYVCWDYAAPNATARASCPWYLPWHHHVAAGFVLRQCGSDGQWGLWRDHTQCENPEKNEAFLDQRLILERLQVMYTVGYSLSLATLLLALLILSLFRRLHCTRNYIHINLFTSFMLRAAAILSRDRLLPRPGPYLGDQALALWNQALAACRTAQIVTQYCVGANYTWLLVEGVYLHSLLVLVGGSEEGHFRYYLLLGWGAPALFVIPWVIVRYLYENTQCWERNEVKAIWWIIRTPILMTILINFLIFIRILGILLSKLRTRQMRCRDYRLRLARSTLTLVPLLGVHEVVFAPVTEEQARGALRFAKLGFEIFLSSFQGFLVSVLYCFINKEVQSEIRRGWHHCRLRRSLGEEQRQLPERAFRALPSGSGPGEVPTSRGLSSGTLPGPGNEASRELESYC


Key:
[1] = biological target: human glucagon-like peptide-1 receptor (human, UniProt P43220); test: cell-based or functional assay
[2] = biological target: T1, human glucose-dependent insulinotropic …; test: cell-based or functional assay

Binder | Activity for human GLP-1R (EC50 nM), cAMP HTRF [1] [nM] | Activity for human GIPR (EC50 nM), cAMP HTRF [2] [nM]
Y[Aib]EGTFTSDYSIYLEKEAAKEFVNWLLAGGPSSGAPPPSK-NH2 (N-terminus assumed; SMILES CC[C@H](C)[C@H](NC(=O)[C@H](CO)NC(=O)[C@H](Cc1ccc(O)cc1)NC(=O)[C@H](CC(=O)O)NC(=O)[C@H](CO)NC(=O)[C@@H](NC(=O)[C@H](Cc1ccccc1)NC(=O)[C@@H](NC(=O)CNC(=O)[C@H](CCC(=O)O)NC(=O)C(C)(C)NC(=O)[C@@H](N)Cc1ccc(O)cc1)[C@@H](C)O)[C@@H](C)O)C(=O)N[C@@H](Cc1ccc(O)cc1)C(=O)N[C@@H](CC(C)C)C(=O)N[C@@H](CCC(=O)O)C(=O)N[C@@H](CCCCN)C(=O)N[C@@H](CCC(=O)O)C(=O)N[C@@H](C)C(=O)N[C@@H](C)C(=O)N[C@@H](CCCCN)C(=O)N[C@@H](CCC(=O)O)C(=O)N[C@@H](Cc1ccccc1)C(=O)N[C@H](C(=O)N[C@@H](CC(N)=O)C(=O)N[C@@H](Cc1c[nH]c2ccccc12)C(=O)N[C@@H](CC(C)C)C(=O)N[C@@H](CC(C)C)C(=O)N[C@@H](C)C(=O)NCC(=O)NCC(=O)N1CCC[C@H]1C(=O)N[C@@H](CO)C(=O)N[C@@H](CO)C(=O)NCC(=O)N[C@@H](C)C(=O)N1CCC[C@H]1C(=O)N1CCC[C@H]1C(=O)N1CCC[C@H]1C(=O)N[C@@H](CO)C(=O)N[C@@H](CCCCN)C(N)=O)C(C)C) [Compound No. 9] | 0.011 | 0.018
Y[Aib]EGTFTSDVSSYLEEIHQKEFIAWLVRGGPSSGAPPPSK-NH2 (N-terminus assumed; SMILES CC[C@H](C)[C@H](NC(=O)[C@H](Cc1ccccc1)NC(=O)[C@H](CCC(=O)O)NC(=O)[C@H](CCCCN)NC(=O)[C@H](CCC(N)=O)NC(=O)[C@H](Cc1c[nH]cn1)NC(=O)[C@@H](NC(=O)[C@H](CCC(=O)O)NC(=O)[C@H](CCC(=O)O)NC(=O)[C@H](CC(C)C)NC(=O)[C@H](Cc1ccc(O)cc1)NC(=O)[C@H](CO)NC(=O)[C@H](CO)NC(=O)[C@@H](NC(=O)[C@H](CC(=O)O)NC(=O)[C@H](CO)NC(=O)[C@@H](NC(=O)[C@H](Cc1ccccc1)NC(=O)[C@@H](NC(=O)CNC(=O)[C@H](CCC(=O)O)NC(=O)C(C)(C)NC(=O)[C@@H](N)Cc1ccc(O)cc1)[C@@H](C)O)[C@@H](C)O)C(C)C)[C@@H](C)CC)C(=O)N[C@@H](C)C(=O)N[C@@H](Cc1c[nH]c2ccccc12)C(=O)N[C@@H](CC(C)C)C(=O)N[C@H](C(=O)N[C@@H](CCCNC(=N)N)C(=O)NCC(=O)NCC(=O)N1CCC[C@H]1C(=O)N[C@@H](CO)C(=O)N[C@@H](CO)C(=O)NCC(=O)N[C@@H](C)C(=O)N1CCC[C@H]1C(=O)N1CCC[C@H]1C(=O)N1CCC[C@H]1C(=O)N[C@@H](CO)C(=O)N[C@@H](CCCCN)C(N)=O)C(C)C) [Compound No. 4] | 0.43 | > 10
H[Aib]EGTFTSDVSSYLEEEAAKEFVNWLLAGGPSSGAPPPSK-NH2 (N-terminus assumed; SMILES CC(C)C[C@H](NC(=O)[C@H](CC(C)C)NC(=O)[C@H](Cc1c[nH]c2ccccc12)NC(=O)[C@H](CC(N)=O)NC(=O)[C@@H](NC(=O)[C@H](Cc1ccccc1)NC(=O)[C@H](CCC(=O)O)NC(=O)[C@H](CCCCN)NC(=O)[C@H](C)NC(=O)[C@H](C)NC(=O)[C@H](CCC(=O)O)NC(=O)[C@H](CCC(=O)O)NC(=O)[C@H](CCC(=O)O)NC(=O)[C@H](CC(C)C)NC(=O)[C@H](Cc1ccc(O)cc1)NC(=O)[C@H](CO)NC(=O)[C@H](CO)NC(=O)[C@@H](NC(=O)[C@H](CC(=O)O)NC(=O)[C@H](CO)NC(=O)[C@@H](NC(=O)[C@H](Cc1ccccc1)NC(=O)[C@@H](NC(=O)CNC(=O)[C@H](CCC(=O)O)NC(=O)C(C)(C)NC(=O)[C@@H](N)Cc1c[nH]cn1)[C@@H](C)O)[C@@H](C)O)C(C)C)C(C)C)C(=O)N[C@@H](C)C(=O)NCC(=O)NCC(=O)N1CCC[C@H]1C(=O)N[C@@H](CO)C(=O)N[C@@H](CO)C(=O)NCC(=O)N[C@@H](C)C(=O)N1CCC[C@H]1C(=O)N1CCC[C@H]1C(=O)N1CCC[C@H]1C(=O)N[C@@H](CO)C(=O)N[C@@H](CCCCN)C(N)=O) [Compound No. 5] | 0.004 | > 10
Y[Aib]EGTFTSDYSIYLEKEAAQEFVNWLLAGGPSSGAPPPSK-NH2 (N-terminus assumed; SMILES CC[C@H](C)[C@H](NC(=O)[C@H](CO)NC(=O)[C@H](Cc1ccc(O)cc1)NC(=O)[C@H](CC(=O)O)NC(=O)[C@H](CO)NC(=O)[C@@H](NC(=O)[C@H](Cc1ccccc1)NC(=O)[C@@H](NC(=O)CNC(=O)[C@H](CCC(=O)O)NC(=O)C(C)(C)NC(=O)[C@@H](N)Cc1ccc(O)cc1)[C@@H](C)O)[C@@H](C)O)C(=O)N[C@@H](Cc1ccc(O)cc1)C(=O)N[C@@H](CC(C)C)C(=O)N[C@@H](CCC(=O)O)C(=O)N[C@@H](CCCCN)C(=O)N[C@@H](CCC(=O)O)C(=O)N[C@@H](C)C(=O)N[C@@H](C)C(=O)N[C@@H](CCC(N)=O)C(=O)N[C@@H](CCC(=O)O)C(=O)N[C@@H](Cc1ccccc1)C(=O)N[C@H](C(=O)N[C@@H](CC(N)=O)C(=O)N[C@@H](Cc1c[nH]c2ccccc12)C(=O)N[C@@H](CC(C)C)C(=O)N[C@@H](CC(C)C)C(=O)N[C@@H](C)C(=O)NCC(=O)NCC(=O)N1CCC[C@H]1C(=O)N[C@@H](CO)C(=O)N[C@@H](CO)C(=O)NCC(=O)N[C@@H](C)C(=O)N1CCC[C@H]1C(=O)N1CCC[C@H]1C(=O)N1CCC[C@H]1C(=O)N[C@@H](CO)C(=O)N[C@@H](CCCCN)C(N)=O)C(C)C) [Compound No. 10] | 0.097 | 0.006
Y[Aib]EGTFTSDVSSYLEEEAAKEFVNWLLAGGPSSGAPPPSK-NH2 (N-terminus assumed; SMILES CC(C)C[C@H](NC(=O)[C@H](CC(C)C)NC(=O)[C@H](Cc1c[nH]c2ccccc12)NC(=O)[C@H](CC(N)=O)NC(=O)[C@@H](NC(=O)[C@H](Cc1ccccc1)NC(=O)[C@H](CCC(=O)O)NC(=O)[C@H](CCCCN)NC(=O)[C@H](C)NC(=O)[C@H](C)NC(=O)[C@H](CCC(=O)O)NC(=O)[C@H](CCC(=O)O)NC(=O)[C@H](CCC(=O)O)NC(=O)[C@H](CC(C)C)NC(=O)[C@H](Cc1ccc(O)cc1)NC(=O)[C@H](CO)NC(=O)[C@H](CO)NC(=O)[C@@H](NC(=O)[C@H](CC(=O)O)NC(=O)[C@H](CO)NC(=O)[C@@H](NC(=O)[C@H](Cc1ccccc1)NC(=O)[C@@H](NC(=O)CNC(=O)[C@H](CCC(=O)O)NC(=O)C(C)(C)NC(=O)[C@@H](N)Cc1ccc(O)cc1)[C@@H](C)O)[C@@H](C)O)C(C)C)C(C)C)C(=O)N[C@@H](C)C(=O)NCC(=O)NCC(=O)N1CCC[C@H]1C(=O)N[C@@H](CO)C(=O)N[C@@H](CO)C(=O)NCC(=O)N[C@@H](C)C(=O)N1CCC[C@H]1C(=O)N1CCC[C@H]1C(=O)N1CCC[C@H]1C(=O)N[C@@H](CO)C(=O)N[C@@H](CCCCN)C(N)=O) [Compound No. 6] | 0.128 | 2.1
Y[Aib]EGTFTSDVSIYLEKEAAEEFVNWLLAGGPSSGAPPPSK-NH2 (N-terminus assumed; SMILES CC[C@H](C)[C@H](NC(=O)[C@H](CO)NC(=O)[C@@H](NC(=O)[C@H](CC(=O)O)NC(=O)[C@H](CO)NC(=O)[C@@H](NC(=O)[C@H](Cc1ccccc1)NC(=O)[C@@H](NC(=O)CNC(=O)[C@H](CCC(=O)O)NC(=O)C(C)(C)NC(=O)[C@@H](N)Cc1ccc(O)cc1)[C@@H](C)O)[C@@H](C)O)C(C)C)C(=O)N[C@@H](Cc1ccc(O)cc1)C(=O)N[C@@H](CC(C)C)C(=O)N[C@@H](CCC(=O)O)C(=O)N[C@@H](CCCCN)C(=O)N[C@@H](CCC(=O)O)C(=O)N[C@@H](C)C(=O)N[C@@H](C)C(=O)N[C@@H](CCC(=O)O)C(=O)N[C@@H](CCC(=O)O)C(=O)N[C@@H](Cc1ccccc1)C(=O)N[C@H](C(=O)N[C@@H](CC(N)=O)C(=O)N[C@@H](Cc1c[nH]c2ccccc12)C(=O)N[C@@H](CC(C)C)C(=O)N[C@@H](CC(C)C)C(=O)N[C@@H](C)C(=O)NCC(=O)NCC(=O)N1CCC[C@H]1C(=O)N[C@@H](CO)C(=O)N[C@@H](CO)C(=O)NCC(=O)N[C@@H](C)C(=O)N1CCC[C@H]1C(=O)N1CCC[C@H]1C(=O)N1CCC[C@H]1C(=O)N[C@@H](CO)C(=O)N[C@@H](CCCCN)C(N)=O)C(C)C) [Compound No. 8] | 0.07 | 0.12
